In publication doi:10.1101/2021.02.07.430161 (bioRxiv, 2021):
Where two headings read alike, the source gives them in different places.

Tests used:
[1] = target: PABPC1 full-length (His);Paip2 (Paip2a) full-length (human?;human?, UniProt P11940;Q9BPZ3 1-636;1-127, |); experiment: EMSA
[2] = target: T1, Poly(A) binding protein cytoplasmic 1 (PABPC1), full-length recombinant, His-tagged (UniProt P11940-1 1-636); experiment: SEC-MALS
[3] = target: T1, Poly(A) binding protein cytoplasmic 1 …; experiment: SEC-MALS; remark: listed apart in the source
[4] = target: PABPC1 RRM23 (98-293) (UniProt P11940-1 98-293); experiment: native gel or EMSA
PABPC1 RRM23 (98-293), sequence (P11940 98-293): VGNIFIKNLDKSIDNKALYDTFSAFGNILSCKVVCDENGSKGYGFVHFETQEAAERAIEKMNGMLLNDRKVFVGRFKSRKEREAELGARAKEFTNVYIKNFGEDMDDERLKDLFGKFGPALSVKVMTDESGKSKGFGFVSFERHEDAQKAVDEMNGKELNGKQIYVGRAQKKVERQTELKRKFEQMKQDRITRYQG

[5] = target: PABPC1 (1-372) (UniProt P11940-1 1-372); experiment: native gel or EMSA
PABPC1 (1-372), sequence (P11940 1-372): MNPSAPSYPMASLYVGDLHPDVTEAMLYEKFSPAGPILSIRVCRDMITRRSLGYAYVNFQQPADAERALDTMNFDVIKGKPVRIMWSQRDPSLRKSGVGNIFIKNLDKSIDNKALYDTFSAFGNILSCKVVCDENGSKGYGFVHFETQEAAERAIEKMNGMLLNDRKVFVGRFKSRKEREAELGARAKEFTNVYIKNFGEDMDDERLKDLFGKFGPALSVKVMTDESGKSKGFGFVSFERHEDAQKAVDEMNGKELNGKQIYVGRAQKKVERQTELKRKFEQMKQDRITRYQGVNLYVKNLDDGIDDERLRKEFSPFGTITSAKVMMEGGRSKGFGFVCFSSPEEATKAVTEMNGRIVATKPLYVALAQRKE

T1 sequence (P11940 whole entry): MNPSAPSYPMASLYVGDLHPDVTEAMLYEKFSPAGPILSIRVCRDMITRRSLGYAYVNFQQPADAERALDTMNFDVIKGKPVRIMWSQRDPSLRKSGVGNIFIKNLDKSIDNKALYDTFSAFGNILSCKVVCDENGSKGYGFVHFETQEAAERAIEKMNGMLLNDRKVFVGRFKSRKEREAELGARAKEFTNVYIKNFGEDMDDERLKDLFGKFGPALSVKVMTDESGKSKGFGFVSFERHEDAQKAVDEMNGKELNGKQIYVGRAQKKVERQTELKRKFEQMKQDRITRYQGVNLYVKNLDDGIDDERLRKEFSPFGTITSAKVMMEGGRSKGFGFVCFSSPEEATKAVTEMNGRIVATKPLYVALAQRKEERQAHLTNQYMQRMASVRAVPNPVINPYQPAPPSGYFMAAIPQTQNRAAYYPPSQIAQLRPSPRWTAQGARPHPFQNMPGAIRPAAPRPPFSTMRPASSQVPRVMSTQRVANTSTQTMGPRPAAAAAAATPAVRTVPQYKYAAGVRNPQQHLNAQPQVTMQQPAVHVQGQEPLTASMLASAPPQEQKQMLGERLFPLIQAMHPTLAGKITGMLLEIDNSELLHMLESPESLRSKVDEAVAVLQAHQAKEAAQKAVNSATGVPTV
PABPC1 full-length (His);Paip2 (Paip2a) full-length, sequence (P11940 whole entry, one chain of several): as the sequence (P11940 whole entry) above

AAAAAAAAAAAAAAAAAAAAAAAAA (ssRNA) [r(A)25]: binds [1].

B1: PABPC1-interacting protein 2 (Paip2), full-length recombinant (natural protein, UniProt Q9BPZ3 1-127, looked up)
chain: MKDPSRSSTSPSIINEDVIINGHSHEDDNPFAEYMWMENEEEFNRQIEEELWEEEFIERCFQEMLEEEEEHEWFIPARDLPQTMDQIQDQFNDLVISDGSSLEDLVVKSNLNPNAKEFVPGVKYGNI
B1 was tested, and the “stoichiometry N” value [2] was 2 Paip2 per PABPC1 and the “stoichiometry N” value [3] was 1 Paip2 per PABPC1.

B2: Paip2 (22-75) (domain or fragment, UniProt Q9BPZ3 22-75, looked up)
chain: GHSHEDDNPFAEYMWMENEEEFNRQIEEELWEEEFIERCFQEMLEEEEEHEWFI
B2: binds [4]; binds [5].
